Experimental data from the DeepSol protein solubility set.

Test: soluble on expression in E. coli; label from the status in PepcDB or PDB records

| Sequence | soluble on expression in E. coli |
| --- | --- |
| MSLITLPKISLIGSNIAKEGLEFVFAGPLAACSDCRVKNVCFNLEQGHRYRVTKVREQVNPCIIFNGDKVNTVEVEELEDYVNVQESKRIQEGAIITLKSMNCDYITCPNIEKCNLYYFKPDSKVMVKSIGKEIKCPKGYKMKQVAITYKEGHHHHHH | not soluble |
| MRFVFDIDGTLCFDGRLIDQTIIDTLLQLQHDGHELIFASARPIRDLLPVLPSVFHQHTLIGANGAMISQQSKISVIKPIHTDTYHHILKIIQKYELDYIIDDDWNYAAQLDAENAIFERLDPHKLASCIDVANIDTPIKIILLNIDPAQITTILDELNKYHQELEMIHHSNEYNIDITAQNINKYTALQYIFDADVKYIAFGNDHNDIFMLQHASSGYIIGPSEAYTHAILKLDKIKHINNNTQAICKVLKSYK | not soluble |
| SSAESVSCTVKSPVALQIGDAVSDSSRPGVYITDITLAEPVNIQEISFKNFYTAYLTVRLQRRHGSTASKWVTCLKNYCLMGNPHAEAGSHDYFSIYRQQMSTEPDNVTTVRLILRQPSSEWLSFSIEEINIYPCTKEDSERDVPAWLSTLTPVDEPLDLKGLPDPETVSSSIQQMWALTEIMQASQTAASIGRFDVEGAYDVKLLSYT | not soluble |
| MDQTIHHQIQQALHFRTAVRVYKEEKISDEDLALILDAAWLSPSSIGLEGWRFVVLDNKPIKEEIKPFAWGAQYQLETASHFILLIAEKHARYDSPAIKNSLLRRGIKEGDGLNSRLKLYESFQKEDMDMADNPRALFDWTAKQTYIALGNMMMTAALLGIDTCPIEGFHYDKVNHILAKHNVIDLEKEGIASMLSLGYRLRDPKHAQVRKPKEEVISVVK | soluble |
| RCGAGGYEALRGPLGAAGRRARQAWTIAPGSRRRGKAAAQSSVPGAGHAGGGAAPRRPAAAVRPGSPPLAGALTPRPSPLQGPFPGRLLAGPPPRFPGGTMTDTRRRVKVYTLNEDRQWDDRGTGHVSSGYVERLKGMSLLVRAESDGSLLLESKINPNTAYQKQQDTLIVWSEAENYDLALSFQEKAGCDEIWEKICQVQGKDPSVDITQDLVDESEEERFDDMSSPGLELPSCELSRLEEIAELVASSLPSPLRREKLALALENEGYIKKLLELFHVCEDLENIEGLHHLYEIIKGIFLLNRTALFEVMFSEECIMDVIGCLEYDPALSQPRKHREFLTKTAKFKEVIPISDPELKQKIHQTYRVQYIQDMVLPTPSVFEENMLSTLHSFIFFNKVEIVGMLQEDEKFLTDLFAQLTDEATDEEKRQELVNFLKEFCAFSQTLQPQNRDAFFKTLSNMGILPALEVILGMDDTQVRSAATDIFSYLVEYNPSMVREFVMQEAQQNDDDILLINLIIEHMICDTDPELGGAVQLMGLLRTLVDPENMLATANKTEKTEFLGFFYKHCMHVLTAPLLANTTEDKPSKDDFQTAQLLALVLELLTFCVEHHTYHIKNYIINKDILRRVLVLMASKHAFLALCALRFKRKIIGLKDEFYNRYIMKSFLFEPVVKAFLNNGSRYNLMNSAIIEMFEFIRVEDIKSLTAHVIENYWKALEDVDYVQTFKGLKLRFEQQRERQDNPKLDSMRSILRNHRYRRDARTLEDEEEMWFNTDEDDMEDGEAVVSPSDKTKNDDDIMDPISKFMERKKLKESEEKEVLLKTNLSGRQSPSFKLSLSSGTKTNLTSQSSTTNLPGSPGSPGSPGSPGSPGSVPKNTSQTAAITTKGGLVGLVDYPDDDEDDDEDEDKEDTLPLSKKAKFDS | soluble |
| MLRSLVQNPKVRARVLERVDEFRLNNLSNEEVWFRELTLCLLTANSSFISAYQALNCLGQKIYYANEEEIRNILKSCKYRFYNLKAKYIIMAREKVYGRLKEEIKPLADEDQQLARERLLNIKGIGMQEASHFLRNVGYFDLAIIDRHIIDFMRRIGAIGETNVKQLSKSLYISFENILKSIASNLNMSVGILDLFIWYKETNTIVK | soluble |
| MGSDKIHHHHHHMNSDIIVADFWKNNEEILTDFDKDSFCESWTENEMWSIEFKVAQTPKNAHCYSFLDYESSVYFRGQEFVVKQLSHDAVGKTLSKDIRAPHIYYTCQDGRQDDAITGSFTLEQCLTHIFKTDNRGFSWEIIDPSNILEKVQQENFGNNNYLTLIDQLLDDYGVVVIPDNRHLVFKPREIYGAKTENFIRYKYNTDEASFDIDTLSLKTKIKGYGKVDSNGNNYFSPITYTSPEVEKWGIRWQEPVSDERYTVAGNMQRRLKLELQDYPATTGSVILKNDYECEKGDYVLFIYEPLGIDYDVQIVAYKKYPFTIKAPEITLSNNKKSIVSIMAQLAKVLKGAK | not soluble |
| MSLGRNEPVIGITPSFDYNENKMYINNIYCEAIILSGGMPVLLPVTEDEGLLSQMVEEFDGFLLSGGPDVDAVHWGEWNYSYNGEISPHRDKMELFIAKEAVAKDKPIFGICRGIQVLNVALGGTLYQDIYSQNKEKRLIKHSQNAPRWYPVHKVMLKAGSKVRNAHGAESIAVNSFHHQAVREPAPDFIVTGTSEDGIIEAIEHKNCKFAVGVQWHPEHMWKRDLSFLNIFKYFVSSCLEGHHHHHH | soluble |
| QIVDCWETWSRCTKWSQGGTGTLWKSCNDRCKELGRKRGQCEEKPSRCPLSKKAWTCICY | soluble |
| MSEVDAQEEFHDAPEEAVIEIQKDFVAEIEQDNSNAQLVEEGDDQLVTAEADDEKSAQQVDEDRTEDQVPDITGTEYVDPMTTSMDGIEDLPANDEAQFEDTILEEDELPDQLESAENQEPRSELVSSGVEEEIIEEEDIEEIEESDYVEESAPADEPAPEEEKPQEEAPAEEPAPAEEAPQEEVPAEEPVAEETAPAEEAAVEEPVVEEAAPVEEAPEAEETAPAEEPLIEVAVEEAPAEEPVAEEAEPEAEKQEFELQAPPEGKRPRTPNDLDNPTADEEPAAELEADAGSEVPPTPKTAASEKQSVPPTPKSAAPSEVPPTPKSAAPSEVPPTPKSAAPSEVPLTPKSAAQSSVPPTPKSAVPSEAPPTPRSAAPSDVPPTPKSNGHIANGSIPGTPSVAQESAKATPAATPAATATPAATATPAATGTPKADTAFNFEETPATPRSSVPATPTESNLTTPAPKTPKTPKTPRTPRTPKTPRTPKTPAVVEPEPEPVAEEPEPVAEPEPEPEPVAEAEPEAEPAVEEEPAEEPEPAADETATEPTAEEAEPEAVEESIEKTEVVEEESAPPAARQSSPSPPPARRRPQSPSPERQRTSRHADRDITSYDEDSYRAVPPPRMPTATSFSSWSPPDKQSYTPISPFVSTANKYRNEYTSGSSYRPTNMYTSHFDDIVATGAFSSALYSTNRLIERSRSRTRERKQAMRSQRSASNYYRYSSQAPAPLRAREYSTPPTREISRAPSRNTSFVSFLDYSSAKQGELSRANSRTSIYGDSLSRSCSRANVDAYLGGGRLSRVDSYVRDIHTPYEYEVPSTYDRYRSSSRGPSYSTINGYTAYISSPSYVETESTRRMKRYQRDTSPAMVRSMYEGRIGQLERSLSREVIQKDRVCLWRLGNVVYGGLYRKKYDADLEKAVQYYSSCAKKRRF | not soluble |
| MGTVHARSLDPLPMNGPDFGSPDDADLVEVEPQKKQEILENKDVVVQRVHFEGLGRTKDDLVAHEIGQVFKAKNLIEVMRKSHEAREKLLRLGVFRNVEVLIDTCEGEDAVPNGLDVTFEVTELRRVTGSYNTMVGNNEGSMVLGLKLPNLFGRAEKMTFQFSYGTKETSYGLSFFKPQVGNFERNFSVNLYKVTGQFPWSSLRETDRGVSAEINFPIWKTSHTLKWEGVWRELGCLARTASFTIREESGHTLKSSLSHSMVIDSRNASILPKSGALLKINQELAGYTGGDVSFLKEDFELQLNRQLTWDSVLSTSLWGGMLVPIGDRPSSIADRFYLGGPTSVRGFSMYSIGPQSEGDYLGGEAYWAGGVHLYTPLPFRPGRGGFGDLFRTHFFLNAGNLCNLNYGEGPGAHLRRLAECIRWSYGAGLVLRLGNIARLELNYCIPMGVQSGDRICDGVQFGAGIRFL | soluble |
| MCRLAILALFSVAMVSVYGQDTPPPFLRNATPDQLKSFQQMIQSNGHLTETAMGAKIQEWVDQQGGKVAADWKDFQEFIKGQQGKSEAAHQTAISSFSPEAKKADAELTAISNDASLSIKAKGDKIQAYLTTLPANVKAELEKAQGQ | not soluble |
| MSEKLQKVLARAGHGSRRELEALIRAGRVSVNGKVAVLGERLEDDNAVVRIDGHVVSVKAQEEVICRVLAYYKPEGELCTRHDPEGRRTVFDRLPKIRGSRWISVGRLDANTSGLLLFTTDGELANRLMHPSRQVEREYLVRVFGDVTEEKVRNLVRGVQLEDGMARFEDVMYAGGEGINHTFYVVINEGRNREVRRLWESQGTTVSRLKRVRYGDIFLDKKLPRGGWMELDLKQVNYLRELVELRPEKETVLNMAPDAATRKRERTRSQKIRRAVRRHEERISATPGRSGKAPARRKPGGESSTRNKVANQQQSSRKPRG | not soluble |
